According to publication PMC6570480, “PLK4 promotes centriole duplication by phosphorylating STIL to link the procentriole cartwheel to the microtubule wall” (eLife, 2019):
Positions count from the first letter of the chain named. Each block holds one molecule with its values, some of them ahead of it.

Experiments:
DmSas4 = assay: co-IP, immunoblot; conditions: reference: WT Ana2, no DmPLK4SBM-mCherry; sites S38
[1] = target: CPAP TCP domain, 1142-1338 (UniProt Q9HC77); assay: GST pull-down, immunoblot; conditions: sites S428
CPAP [2] = target: CPAP (UniProt Q9HC77); assay: immunofluorescence co-localisation at GFP-STIL/PLK4 foci; conditions: reference: WT Myc-GFP-STIL; sites S428
CPAP [3] = target: CPAP (UniProt Q9HC77); assay: GFP-binding-protein co-IP, immunoblot; conditions: sites S428
[4] = target: T1, Recombinant full-length GST-STIL S428A phosphorylated in vitro by the His-PLK4 kinase domain (human, UniProt Q15468 1-1287, S428A, phosphorylated at multiple sites by the 6xHis-PLK4 kinase domain (not at 428)); assay: pull-down; GST-hSTIL bound to GSH resin, incubated with 6xHis-hPlk4 (a.a. 1–416) with or without 10 µM ATP at 33°C for two hours, then with Flag-CPAP TCP domain for 2 hr at 4°C in 50 mM Na-HEPES pH 7.5, 400 mM NaCl, 2 mM MgCl2, 1 mM EGTA, 1 mM DTT, 0.15% Triton-X 100, 0.5 mg/ml BSA; immunoblot; conditions: both partners purified
T1 construct: STIL, human, full length; also called S428A GST-STIL; source: SF9 insect cells (Bac-to-Bac), purified (Glutathione Sepharose); phosphorylated on beads by 6xHis-hPlk4 (a.a. 1–416) with ATP; not shown: GST, N-terminal, kept
T1 sequence (looked up): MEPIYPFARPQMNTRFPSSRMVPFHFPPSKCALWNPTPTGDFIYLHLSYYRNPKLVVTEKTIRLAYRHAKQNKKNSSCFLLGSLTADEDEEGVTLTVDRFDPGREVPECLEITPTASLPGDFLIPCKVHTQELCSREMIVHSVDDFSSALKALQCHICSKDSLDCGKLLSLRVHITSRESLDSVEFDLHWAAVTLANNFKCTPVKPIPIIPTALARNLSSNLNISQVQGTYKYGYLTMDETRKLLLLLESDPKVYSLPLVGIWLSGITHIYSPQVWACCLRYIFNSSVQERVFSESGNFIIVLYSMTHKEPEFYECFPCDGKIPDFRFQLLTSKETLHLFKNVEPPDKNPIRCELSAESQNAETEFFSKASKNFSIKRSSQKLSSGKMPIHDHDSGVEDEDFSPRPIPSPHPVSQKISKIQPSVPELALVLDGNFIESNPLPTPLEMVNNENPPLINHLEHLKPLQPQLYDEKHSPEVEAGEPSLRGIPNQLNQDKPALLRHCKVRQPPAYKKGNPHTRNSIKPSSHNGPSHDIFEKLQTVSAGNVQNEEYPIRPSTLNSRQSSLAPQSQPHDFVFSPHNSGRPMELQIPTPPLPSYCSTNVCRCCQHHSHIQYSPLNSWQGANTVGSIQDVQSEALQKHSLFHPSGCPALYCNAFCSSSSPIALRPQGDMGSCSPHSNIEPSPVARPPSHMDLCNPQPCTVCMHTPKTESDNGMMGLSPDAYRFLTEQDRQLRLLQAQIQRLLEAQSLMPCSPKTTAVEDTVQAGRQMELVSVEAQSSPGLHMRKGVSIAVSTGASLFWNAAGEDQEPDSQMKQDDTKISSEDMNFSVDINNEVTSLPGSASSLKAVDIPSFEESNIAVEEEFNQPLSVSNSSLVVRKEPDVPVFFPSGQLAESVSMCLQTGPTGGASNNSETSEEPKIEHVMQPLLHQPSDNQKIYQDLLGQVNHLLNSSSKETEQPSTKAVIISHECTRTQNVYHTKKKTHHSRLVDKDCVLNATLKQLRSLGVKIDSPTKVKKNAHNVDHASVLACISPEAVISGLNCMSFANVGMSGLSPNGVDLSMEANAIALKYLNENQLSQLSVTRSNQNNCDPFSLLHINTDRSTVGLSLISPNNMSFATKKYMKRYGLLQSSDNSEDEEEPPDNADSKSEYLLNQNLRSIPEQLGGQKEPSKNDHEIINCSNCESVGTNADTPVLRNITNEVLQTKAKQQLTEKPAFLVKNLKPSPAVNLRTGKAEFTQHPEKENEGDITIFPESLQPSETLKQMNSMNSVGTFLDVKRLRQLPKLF

[5] = target: T2, Recombinant full-length GST-STIL (WT) phosphorylated in vitro by the His-PLK4 kinase domain (human, UniProt Q15468 1-1287, phosphoserine at 428 and phosphorylation at multiple other sites (84 in vitro phosphorylation sites identified on STIL), by the 6xHis-PLK4 kinase domain); assay: as above; conditions: both partners purified
T2 construct: STIL, human, full length; also called GST-hSTIL; phosphorylated WT GST-STIL; source: SF9 insect cells (Bac-to-Bac), purified (Glutathione Sepharose); phosphorylated on beads by 6xHis-hPlk4 (a.a. 1–416) with ATP; not shown: GST, N-terminal, kept
T2 sequence (looked up): T1 sequence (looked up) with A428S

[6] = target: T3, Recombinant full-length GST-STIL S428A, not phosphorylated (human, UniProt Q15468 1-1287, S428A); assay: as above; conditions: both partners purified
T3 construct: STIL, human, full length; also called S428A GST-STIL; source: SF9 insect cells (Bac-to-Bac), purified (Glutathione Sepharose); incubated with 6xHis-hPlk4 (a.a. 1–416) without ATP; not shown: GST, N-terminal, kept
T3 sequence (looked up): T1 sequence (looked up)

Molecule: STIL (from UniProt Q15468) GST-STIL S428A, PLK4 + ATP
- binding against the reference ([1]; reference: WT GST-STIL, PLK4 + ATP): weaker

Molecule: STIL (from UniProt Q15468) Myc-GFP-STIL S428A
- other: percent reduction of CPAP at foci (CPAP [2]): > 90%

Molecule: STIL (from UniProt Q15468) STIL S428A + kinase-active PLK4∆24-mCherry
- binding against the reference (CPAP [3]; reference: WT STIL + kinase-active PLK4∆24-mCherry): weaker

More lines, now with the values ahead:

- fold change (DmSas4): > 6
Molecule: Ana2 WT Ana2 + DmPLK4SBM-mCherry

- fold change ([1]; reference: WT GST-STIL + His-PLK4 kinase domain, no ATP): 2.5
Molecule: STIL (from UniProt Q15468) WT GST-STIL + His-PLK4 kinase domain + ATP

- fold change (CPAP [3]; reference: WT STIL + kinase-dead PLK4∆24-mCherry): > 7
Molecule: STIL (from UniProt Q15468) WT STIL + kinase-active PLK4∆24-mCherry

- binding result [4]: binds
- fold increase in binding, phosphorylated against unphosphorylated GST-STIL [5]: ~2.5 fold
- binding result [6]: binds
B1: Flag-CPAP TCP domain (aa 1142–1338) (domain or fragment, human, UniProt Q9HC77 1142-1338, looked up)
chain: EEEEDQDIQGEISHPDGKVEKVYKNGCRVILFPNGTRKEVSADGKTITVTFFNGDVKQVMPDQRVIYYYAAAQTTHTTYPEGLEVLHFSSGQIEKHYPDGRKEITFPDQTVKNLFPDGQEESIFPDGTIVRVQRDGNKLIEFNNGQRELHTAQFKRREYPDGTVKTVYANGHQETKYRSGRIRVKDKEGNVLMDTEL
notes: CPAP (CENPJ), human, TCP domain, residues 1142–1338; Expressed as GST-Flag-CPAP TCP; also called Flag-TCP domain; Flag-TCP; source: E. coli Rosetta (DE3), purified; not shown: FLAG, N-terminal, kept
